Assay: yeast display, Sf9 membrane polyspecificity reagent, FACS + sequencing; frameworks hold sequencing errors
Outline: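 A synthetic nanobody library was expressed on Saccharomyces cerevisiae BJ5465 by galactose induction for 36–48 hours. The library was stained for 1 hour at 4 °C with 10% biotinylated, detergent-solubilized Sf9 membrane reagent and enriched with streptavidin microbeads before FACS. Low and high (top ~1%) gates were set on anti-HA fluorescence for expression and streptavidin fluorescence for reagent binding, and each polyreactivity label reflects the gate of origin.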

| Sequence | polyreactivity (PSR sort gate) |
| --- | --- |
| QVQLVESGGGLVQAGGSLRLSCAASGGTFLSNAMGWYRQAPGKERELVASISWGGGSTTYADSVKGRFTISRDNAKNTVYLQMNSLKPEDTAVYYCNALDGPGYYVDYDYWGQGTQVTVSS | low polyreactivity |
| QVQLVESGGGLVQAGGSLRLSCAASGRTFSLYTMGWYRQAPWKERELVASITSSGSTSYADSVKGRFTISRDNAKNTVYLQMNSLKPEDTAVYYCNAAVSYPKYPYVSPGVPSYDYWGQGTQVTVSS | low polyreactivity |
| QVQLVESGGGLVQAGGSLRLSCAASGFIFRRNAMGWYRQAPGKERELVAAISRTGGSTYYADCVKGRFTISRDNAKNTDYLQMNSLKPEDTAVYYCARYGLVYALGYWGQGTQVTVSS | high polyreactivity |
| QVQLVESGGGLVQAGGSLRLSCAASGRTQAFHAMGWYRQAPGKERELVAVIRNGTSTNYADSVKGRFTISRDNAKNTVYLQMNSLKPEDTAVYYCNVPYYLPSYLSGYDYWGQGTQVTVSS | low polyreactivity |
| QVQLVESGGGLVQAGGSLRLSCAASGRTFFTYAMGWYRQAPGKERELVASITRSGVSTYYADSVKGRFTISRDNAKNTVYFQMNSLKPEDTAVYYCNTRYPYYWPIYGYWGQGTQVTVSS | high polyreactivity |
| QVQLVDSGGGIVQAGGSLRLSCPASGITFPKYAMGWYRQAPGKERELVAAITKSSGSTYYADSVKGRFTISRDNAKNTVYLQMKSLKPEDTAVYYCAARRVNHIRSYSYVSNYGYWGQGTQVTVSS | high polyreactivity |
| QVQLVESGGGLVQAGGSLRLSCAASGFTFYYYAMGWYRQAPGKERELVAAISGGGGSTYYADSVKGRFTISRDNAKNTVYLQMNSLKPEDTAVYYCAAVGSWRYNYDYDYWGQGTQVTVSS | high polyreactivity |
| QVQLVESGGGLVQAGGSLRLSCAASGSIFPDYDMGWYRQAPGKERELVAAISSSGDSTYYADSVKGRFTISRDIAKNTVYLQMNSLKPEDTAVYYCAVDGTRSTSNGSEFTGYNYWGQGTQVTVSS | low polyreactivity |
| QVQLVESGGGLVQAGGSLRLSCAASGFTFGRYAMGWYRPAPGKERELVPAISFSGGRTYYADSVKGRFTISRDNAKNTVYLQMNCMKPEDTAVYYCAARRSEEHVGRSTYARYDYWGQGTQVTVSS | high polyreactivity |
| QVQLVESGRGLVQAGGSLRLSCAASGSIFKNYAMGWYRQAPGKERELVAAITRGTYYADSVKGRFTISRDNAKNTVYLQMNSLKPEDTAVYDCYREYWGRGYYRVRGEYDYWGQGTQVTVSS | low polyreactivity |
| QVQLVESGGGLVQAGGSLRLSCAASGRIFVDYAMGWERQAPGKERELVAAITYGGGSTHYADSVKGRFTISRDNAKNTVYLQMNSLKPEDTAVYYCAADLFYHSYGYEYWGQGTQGTVSS | low polyreactivity |
| QVQLVESGGGLVQAGGSLRLSCAASGRTFYYNAMGWYRQAPGKEREFVAAIRYSGGITYYADSVKGRFTISRDNAKNTVYLQMNSQKPEDTAVYYCAADYVSRRYYYWGQGTQVTVSS | high polyreactivity |
| QVQLVESGGGLVQAGGSLRLSCAASGFIFKVNAMGCYRQAPGKERELVAAISRRGGTTYYADSVKGRFTISRDNAKNTVYFQLNSLKPEDTAVYYCYRARSYGVTDKVAILADDYWGQGTQVTVSS | high polyreactivity |
| QVQLVESGGGLVQAGGRLRLSCAAYGRTFSDYTMGWYRQAPGKERELVAAISRRGGTTYYADSVKGRFTISRDNAKNTVYLQMNSLKPEDTAVYYCAAKRYRPKYEYDYWGQGTQVTVSS | high polyreactivity |
| QVQHVESVGGLVQAGGSLRLICADSGFTFWPYAMGWYRPAPGTERELVAAITSSGSTNYADSVKGRFTISRDNAKNTVYLQMNSMKQEDTAVYYCAADHRPWRFQSSVQLYYYWGQGTQVTVSS | low polyreactivity |
| QVQLVESGGGLVQAGGSLRLSCAASGGTIYFYDMGWYRQAPGKEREFVAAIDGSAGRTYYADSVKGRFTISRDNAKNTVYLQMNSLKPEDTAVYYCAADWAQQSEQEYGTTYDYWGQGTQVTVSS | low polyreactivity |
| QVQLVESGGGLVQAGGSLRLSCAASGSIFKVNTMGWYRQAPGKERELVAAISYSGGSTYYADSVKGRFTISRDHAKNTVYLQMNSLKPEDTAVYYCNVSPTTSGDGGGYDSWGQGTQVTVSS | low polyreactivity |
| QVQLVESGGGIVQAGGSLRLSCAASGRTFRWNVMGCYRPAPGKERELVATISRRSGSTNYADSVKGRFTISRDNAKNTVYLQINSLKPEDTALYYCAVVIVRALVYSGDYWGQGTQVSVSS | low polyreactivity |
| QVQLVDSGGGLVQAGGSLRLSCAASGRIFGYNAMGWSRQAPGKERELVAAISSGGGTNYADSVKGRFTISRDNAKNTVYLQMNSLKPEDTAVYYCAVRRRRYHTYYRGYDYWGQGTQVTVSS | low polyreactivity |
| QVQLVESGGGLVQAGGSLRLSCAASGRIFYFYAMGWYRQAPGKERELVAAITGSAGGTYYADSVKGRFTISRDNAKNTVYLQMNSLKPEDTAVYYCNAGSTRYWRSRYDYWGQGTQVTVSS | low polyreactivity |
| QVQLVESGGGLVQAGGSLRLSCAASGSTFSANAMGWYRQAPGKERELVAGISRSGGRTYYADSVKGRFTISRDNEMNTVYLQMNSLKPEDTAVYYCNARRRGAGGYDYWGQGTQVTVSS | high polyreactivity |
| QVQLVESGGGLVQAGGSLRLSCAASGRIFNGYAMGWYRQAPGKERELVARISKRGGRTYYADSVKGRFTISRDNAKNTVYLQMNSLKPEDTAVYYCNAVPRVTRPSAVEEYDYWGQGTQVTVSS | high polyreactivity |

| Sequence | polyreactivity (PSR sort gate) |
| --- | --- |
| QVQLVESGGGLVQAGGSLRLSCAASGRNFTDNDMGWYIQAPGKEMDLVAGINWSSGSTYYADSVKGRFTISRDNAKNTVYLQMNSLKTEDTAVYYCNALGYWRSTVHFVVGEVDYWGQGTQVTLSS | low polyreactivity |
| QVQLVESGGGLVQAGGSLRLSCAASGSTFSQNAMGWYRQAPGKERELVAAITSGGITYYADSVKGRFTISRDNAKNTVYLQMNSLKPEDTAVYYCAAVTPSGAHRSAYHPISDYWGQGTQVTVSS | low polyreactivity |
| QVQLVESGGVLVQAGGSLRLSCAASGLIFATYAMGWSRQAPGKERELVAAISSNGDRTYYADSVKGGFTISRDNAKNTVYLQMNCLKPEDTAVYYCARLYLVQSRYPEMDFWGQGTQVTVSS | high polyreactivity |
| QDQHVESGGGLVQAGGSLRLSCAASGSTFPYYAMGWYRQAPGKERELVAAITSSGGSTYYADSVKGRFTISRVNAKNTVYLQMNSLKPEDTAVYYCANGYGPYRQMNYWGQGTQVTVSS | low polyreactivity |
| QVQLVESGGGLVQAGGSLRLSCAASGRTFKYYAMGWYRQAPGKERELVAAISRSGGTTYYADSVKGRFTISRDNAKNTVYLQMNSLKPEDTAVYYCAARCATRSRYDYWGQGTQVTVSS | high polyreactivity |
| QVQLVESGRGLVQAGGSLRLSCAASGIIFGGYSMGWYRQAPGKERELVAAISGIGSRTYYADSVKGRFTISRDNAKNTVYLQMNSLKPEDTAVYYCNADQVYGYNYWGQGTQVTVSS | high polyreactivity |
| QVQLVESGRGLVQAGGSLRLSCADSGRTFGYYGMGWYRQAPGKEREFVAAITRSGGSTYYADSVKGRFTISRDHAKNTVYLQMNSLKPEDTAVYYCAAAHLFTRSRPYDYWGQGTQVTVSS | high polyreactivity |
| QVQLVESGGGLVQAGGSLRLSCAASGSIFLSNAMGWYRQAPGKERELVAAISRRGASTYYADSVKGRFTISRDNAKNTVYFQMNSLKPEDTAVYYCAALSYSAYGYNYWGQGTQVTVSS | high polyreactivity |
| QVQLVESGGGLVQAGGSLRLSCAASGSTFGWYAMGWYRQAPGKERELVAAISYIGGSTYADSVKGRFTISRDNAKNTVYLQMKSLKPEDTAVYYCNAVVYGKSYGSRIYDYWGQGTQVTVSS | high polyreactivity |
| QVQLVESGGGLVQAGGSLRLSCAASGRTFGYNAMGWYRQAPGKERELVAAISYSGGRTYYADSVKGRFTISRDNAKNTVYLQMNSLKPEDTAVYYCAAKNPYKYDYWGQGTQVTVSS | high polyreactivity |
| QVQLVESGGGLVQAGGSLRISCAASGFIFSRNAMGWYRQAPGKERELVAAISAGGGSTYYADSVKGRFTISRDNAKNTVYLQMNSLKPEDSAVYSCAAYFRSQFGYWGQGTQVTVSS | high polyreactivity |
| QVQLVESGGGLVQAGGSLRLSCAASGSIFKKYAMGWYRPAPGKERELVAAITRGTYYADSVKGRFTISRDNAKNTVYLQMNSLKPEDTAVYDCNREYWGRGYYRVRGEYDYWGQGTQVSVSS | low polyreactivity |
| QVHLVESGGGLVQAGGSLRLSCSASGRTFGWNVMGWYRQAPGKERELVAAISGSGGSTYYADSVKGRFTISRDNAKTTVYLQMNSLKPEDTAVYYCAALYGPGREYDYWGQGTQVTVSS | low polyreactivity |
| QVQLVESGGGLVQAGGSLRLSCAASGFNFKHYAMGWYRQAPGKERELVATITRGGSTNYADSVKGRFTISRDNAKNTVYLQMNSLKPEDTAVYYCAASDYVRYPFTRGYIYQGSDYWGQGTQVTVSS | low polyreactivity |
| QVQVVESGGGLVQAGGSLRLSCAASGLIFVYYAMGWYRQAPGKERELVAGITRGGGTNYADSVKGRFTISRDNAKNSFYLQMNSLKPEDTAVYYCAADDLPGMDYWGQGTQVTVSS | low polyreactivity |
| KVQLVESGGGLVQAGGSHRLSSAASGSTFDGYVMGLYRPAPGKERELVDAISSTGTRTYYADSVKGRFTISRDNATNTFYLQINSMKPEDTAVYYCAAEIDYRYRTVSYYYWGQGSQVTVSS | low polyreactivity |
| QVQLVESGGCLVQAGGSLRLSCAASGSIFRRNAMGWSRQAPGKERELVAAISRTGGSTYYADSVKGRFTISRDNAKNTVYLQLNSLKPEDTAVYYCNTYSDYADDDYWGQGTQVTVSS | high polyreactivity |
| QVQLVESGGGLVQAGGSLRLSCAASGRTFGGYDMGWYRQAPGKERELVAAISSGGRTYYADSVKGRFTISRDNAKNSVYLQMNSLKPEDTAVYYCAAKYRKWPIDYWGQGTQVTVSS | high polyreactivity |
| QVQLVESGGRLVQAGGSLRLSGAASGITLGTYLMGWYRQAPGKEREMLAAISSGGSTYYADSVKGRFTISRDNAKNTVFLQMNSLKPEDTAVYYCAAQYYPYYDSRVSYDYWGQGTQVTVSS | low polyreactivity |
| QVQLVESGGGLVQAGGSLRLSCAASGSTFIKYTMGWYRQAPGKERELVAAISVRGGSTTYADSVKGRFTISRDNAKNTVYLQRNSLKPEDTAVYYCAKDHYYAGTWRYGYWGQGTQVTVSS | high polyreactivity |
| QVQLVESGGGLVQAGGSLRLICAASGSIFVLYAMGWYRTAPGKERELVAAINYDGASTYYADSVKGRFTISRDNANNTFYLQMNSLKPKDTAVYYCAADVSYPVIYEYDYGGQGTQVTVSS | low polyreactivity |

Source: the nanobody polyreactivity screen of Harvey et al. (2022)
